Assay [1] has as its target T1, FcγRIa extracellular domain with C-terminal His tag (human, UniProt P12314 16-292).
T1 construct: extracellular domain; soluble receptor expressed in FreeStyle293 cells, used as analyte in Biacore; also called FcgRI; 1a; not shown: His tag attached to the C terminus
The assay can be described thus: SPR (Biacore), antibody captured on antigen peptide chip, FcγR as analyte; relative binding. In general terms: Surface plasmon resonance follows binding to a sensor surface in real time, without labels.

Assay [2] deals with T2, FcγRIIb extracellular domain with C-terminal His tag (human, UniProt P31994 43-217).
T2 construct: extracellular domain; soluble receptor expressed in FreeStyle293 cells, used as analyte in Biacore; also called FcgRIIb; 2b; not shown: His tag attached to the C terminus
T2 sequence (looked up): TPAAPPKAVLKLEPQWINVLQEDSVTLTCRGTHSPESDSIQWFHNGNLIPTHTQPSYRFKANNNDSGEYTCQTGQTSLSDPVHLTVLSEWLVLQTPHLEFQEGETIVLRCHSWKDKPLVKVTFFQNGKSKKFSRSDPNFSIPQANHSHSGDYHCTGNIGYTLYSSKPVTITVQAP
The assay is described as above.

The next assay has as its target T3, FcγRIIa H (human, UniProt P12318 34-217).
T3 construct: extracellular domain; also called FcγRIIa type H; 2aH
T3 sequence (looked up): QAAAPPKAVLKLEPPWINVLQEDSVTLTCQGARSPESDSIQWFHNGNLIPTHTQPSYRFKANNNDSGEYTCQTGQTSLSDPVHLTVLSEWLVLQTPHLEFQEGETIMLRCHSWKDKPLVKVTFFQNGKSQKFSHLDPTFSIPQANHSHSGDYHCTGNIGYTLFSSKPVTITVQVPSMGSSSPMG
The assay is described as follows: SPR (Biacore), relative binding vs GpH7-A5/GpH7-B3/GpL16-k0. As to the method:
(§1) The heterodimerized antibodies He Abs in which one of the H chains was introduced with an alteration were assayed for their binding activities to each activating FcγR and inhibitory FcγR according to the method described in Example 4. […] The activating FcγRs in FIGS. 26, 27, 28, and 29 are FcγRIa, FcγRIIa (R), FcγRIIa (H), and FcγRIIIa, respectively.
(§2) Analysis of interaction between objective antibody and the FcγR was carried out using Biacore T100 (GE Healthcare). HBS-EP+ (GE Healthcare) was used as the running buffer, and the measurement temperature was set to 25° C. Chips produced by immobilizing the antigen peptide by the amine coupling method to a Series S Sencor Chip CM5 (GE Healthcare), or alternatively, chips produced by allowing preliminarily biotinylated antigen peptides to interact with and immobilize onto a Series S Sensor Chip SA (certified) (GE Healthcare) were used. Antibodies of interest were captured onto an antigen peptide-immobilized chip, and allowed to interact to each FcγR diluted with running buffer. To regenerate and repeatedly use the chip, the antibodies captured on the chip were washed off by reacting 10 mM glycine-HCl, pH 1.5.

A further assay has as its target T4, FcγRIIb (human, UniProt P31994 43-217).
T4 construct: extracellular domain; also called 2b
T4 sequence (looked up): T2 sequence (looked up)
Described as above. As for the experimental part:
as §1, §2

In US20180155451A1 (published 2018) one finds He/Con_1a, He/Con_2b and He/Con_2aH data, which are given here for 19 molecules.

T1 sequence (P12314 16-292): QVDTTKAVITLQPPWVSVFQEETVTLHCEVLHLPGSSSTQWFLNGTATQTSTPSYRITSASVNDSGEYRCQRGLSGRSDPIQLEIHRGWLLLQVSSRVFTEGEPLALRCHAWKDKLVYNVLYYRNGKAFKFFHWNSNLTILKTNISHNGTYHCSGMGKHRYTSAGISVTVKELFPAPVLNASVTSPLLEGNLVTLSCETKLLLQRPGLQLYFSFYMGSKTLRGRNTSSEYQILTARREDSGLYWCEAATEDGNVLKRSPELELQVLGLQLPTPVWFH

B1: GpH7-A5/GpH7-B3 variant S324_14T/GpL16-k0 (antibody, human IgG1, kappa)
heavy 1: not shown
heavy 2: not shown
light: DIVMTQSPLSLPVTPGEPASISCQASESLVHSNRNTYLHWYLQKPGQSPQLLIYKVSNRFSGVPDRFSGSGSGTDFTLKISRVEAEDVGVYYCSQNTHVPPTFGQGTKVEIERTVAAPSVFIFPPSDEQLKSGTASVVCLLNNFYPREAKVQWKVDNALQSGNSQESVTEQDSKDSTYSLSSTLTLSKADYEKHKVYACEVTHQGLSSPVTKSFNRGEC
notes: heterodimerized anti-glypican-3 IgG1; alteration in the GpH7-B3 chain only; also called He Ab
Turning to B1, the He/Con_1a in assay [1] is 121 % of control GpH7-A5/GpH7-B3/GpL16-k0 (=100). Moreover, the He/Con_2b in assay [2] was 88.4 % of control GpH7-A5/GpH7-B3/GpL16-k0 (=100).

B2: GpH7-A5/GpH7-B3 variant Q295_03V/GpL16-k0 (antibody, human IgG1, kappa)
heavy 1: not shown
heavy 2: not shown
light: B1 light
notes: as for B1
As to B2, in assay [1], the He/Con_1a was 104 % of control GpH7-A5/GpH7-B3/GpL16-k0 (=100). In addition, the He/Con_2b in assay [2] is 75.7 % of control GpH7-A5/GpH7-B3/GpL16-k0 (=100).

B3: GpH7-A5/GpH7-B3 variant A330_01G/GpL16-k0 (antibody, human IgG1, kappa)
heavy 1: not shown
heavy 2: not shown
light: B1 light
notes: heterodimerized IgG1, mutation in one H chain only; also called He Ab
B3: in the assay with FcγRIIa H, the He/Con_2aH was 99 % of control He Ab (=100). Also, the He/Con_2b in the assay with FcγRIIb was 104 % of control He Ab (=100).

B4: GpH7-A5/GpH7-B3 variant K326_15Y/GpL16-k0 (antibody, human IgG1, kappa)
heavy 1: not shown
heavy 2: not shown
light: B1 light
notes: as for B3
Turning to B4, the He/Con_2aH with FcγRIIa H is 98.3 % of control He Ab (=100). For the same molecule, the He/Con_2b with FcγRIIb is 159 % of control He Ab (=100).

B5: GpH7-A5/GpH7-B3 variant S324_11K/GpL16-k0 (antibody, human IgG1, kappa)
heavy 1: not shown
heavy 2: not shown
light: B1 light
notes: as for B1
Turning to B5, the He/Con_1a in assay [1] was 102 % of control GpH7-A5/GpH7-B3/GpL16-k0 (=100). Moreover, the He/Con_2b in assay [2] was 68.6 % of control GpH7-A5/GpH7-B3/GpL16-k0 (=100).

B6: GpH7-A5/GpH7-B3 variant Q295_07I/GpL16-k0 (antibody, human IgG1, kappa)
heavy 1: not shown
heavy 2: not shown
light: B1 light
notes: as for B1
Consider B6, for which the He/Con_1a in assay [1] is 103 % of control GpH7-A5/GpH7-B3/GpL16-k0 (=100). Also, the He/Con_2b in assay [2] is 84.3 % of control GpH7-A5/GpH7-B3/GpL16-k0 (=100).

B7: GpH7-A5/GpH7-B3 variant Q295_05P/GpL16-k0 (antibody, human IgG1, kappa)
heavy 1: not shown
heavy 2: not shown
light: B1 light
notes: as for B1
With B7, the He/Con_1a in assay [1] was 103 % of control GpH7-A5/GpH7-B3/GpL16-k0 (=100). Moreover, the He/Con_2b in assay [2] is 67.5 % of control GpH7-A5/GpH7-B3/GpL16-k0 (=100).

B8: GpH7-A5/GpH7-B3 variant P271_20W/GpL16-k0 (antibody, human IgG1, kappa)
heavy 1: not shown
heavy 2: not shown
light: B1 light
notes: as for B1
On to B8, for which, in assay [1], the He/Con_1a is 103 % of control GpH7-A5/GpH7-B3/GpL16-k0 (=100). Further, in assay [2], the He/Con_2b was 58.1 % of control GpH7-A5/GpH7-B3/GpL16-k0 (=100).

B9: GpH7-A5/GpH7-B3 variant S324_19Q/GpL16-k0 (antibody, human IgG1, kappa)
heavy 1: not shown
heavy 2: not shown
light: B1 light
notes: as for B1
Consider B9, for which the He/Con_1a in assay [1] is 112 % of control GpH7-A5/GpH7-B3/GpL16-k0 (=100). The He/Con_2b in assay [2] was 66.8 % of control GpH7-A5/GpH7-B3/GpL16-k0 (=100).

B10: GpH7-A5/GpH7-B3 variant S324_08L/GpL16-k0 (antibody, human IgG1, kappa)
heavy 1: not shown
heavy 2: not shown
light: B1 light
notes: as for B1
Regarding B10, in assay [1], the He/Con_1a is 103 % of control GpH7-A5/GpH7-B3/GpL16-k0 (=100). In addition, the He/Con_2b in assay [2] was 89.6 % of control GpH7-A5/GpH7-B3/GpL16-k0 (=100).

B11: GpH7-A5/GpH7-B3 variant Q295_12R/GpL16-k0 (antibody, human IgG1, kappa)
heavy 1: not shown
heavy 2: not shown
light: B1 light
notes: as for B1
For B11, in assay [1], the He/Con_1a was 100 % of control GpH7-A5/GpH7-B3/GpL16-k0 (=100). Moreover, the He/Con_2b in assay [2] is 65.2 % of control GpH7-A5/GpH7-B3/GpL16-k0 (=100).

B12: GpH7-A5/GpH7-B3 variant S324_15Y/GpL16-k0 (antibody, human IgG1, kappa)
heavy 1: not shown
heavy 2: not shown
light: B1 light
notes: as for B1
Consider B12, for which the He/Con_1a in assay [1] is 114 % of control GpH7-A5/GpH7-B3/GpL16-k0 (=100). For the same molecule, in assay [2], the He/Con_2b is 88.2 % of control GpH7-A5/GpH7-B3/GpL16-k0 (=100).

B13: GpH7-A5/GpH7-B3 variant Q295_04F/GpL16-k0 (antibody, human IgG1, kappa)
heavy 1: not shown
heavy 2: not shown
light: B1 light
notes: as for B1
Turning to B13, the He/Con_1a in assay [1] is 102 % of control GpH7-A5/GpH7-B3/GpL16-k0 (=100). In addition, the He/Con_2b in assay [2] is 64.7 % of control GpH7-A5/GpH7-B3/GpL16-k0 (=100).

B14: GpH7-A5/GpH7-B3 variant Q295_11K/GpL16-k0 (antibody, human IgG1, kappa)
heavy 1: not shown
heavy 2: not shown
light: B1 light
notes: as for B1
In the case of B14, the He/Con_1a in assay [1] is 101 % of control GpH7-A5/GpH7-B3/GpL16-k0 (=100). For the same molecule, the He/Con_2b in assay [2] was 70.4 % of control GpH7-A5/GpH7-B3/GpL16-k0 (=100).

B15: GpH7-A5/GpH7-B3 variant P329_01G/GpL16-k0 (antibody, human IgG1, kappa)
heavy 1: not shown
heavy 2: not shown
light: B1 light
notes: as for B1
In the case of B15, the He/Con_1a in assay [1] was 101 % of control GpH7-A5/GpH7-B3/GpL16-k0 (=100). Also, the He/Con_2b in assay [2] is 41.7 % of control GpH7-A5/GpH7-B3/GpL16-k0 (=100).

B16: GpH7-A5/GpH7-B3 variant S324_16H/GpL16-k0 (antibody, human IgG1, kappa)
heavy 1: not shown
heavy 2: not shown
light: B1 light
notes: as for B1
As for B16, the He/Con_1a in assay [1] was 113 % of control GpH7-A5/GpH7-B3/GpL16-k0 (=100). In addition, the He/Con_2b in assay [2] is 83.5 % of control GpH7-A5/GpH7-B3/GpL16-k0 (=100).

B17: GpH7-A5/GpH7-B3 variant S324_18N/GpL16-k0 (antibody, human IgG1, kappa)
heavy 1: not shown
heavy 2: not shown
light: B1 light
notes: as for B1
As for B17, the He/Con_1a in assay [1] was 116 % of control GpH7-A5/GpH7-B3/GpL16-k0 (=100). In assay [2], the He/Con_2b is 81.1 % of control GpH7-A5/GpH7-B3/GpL16-k0 (=100).

B18: GpH7-A5/GpH7-B3 variant A327_18N/GpL16-k0 (antibody, human IgG1, kappa)
heavy 1: not shown
heavy 2: not shown
light: B1 light
notes: as for B3
With B18, in the assay with FcγRIIa H, the He/Con_2aH was 66.8 % of control He Ab (=100). Further, in the assay with FcγRIIb, the He/Con_2b is 113 % of control He Ab (=100).

B19: GpH7-A5/GpH7-B3 variant S267_12R/GpL16-k0 (antibody, human IgG1, kappa)
heavy 1: not shown
heavy 2: not shown
light: B1 light
notes: as for B3
In the case of B19, the He/Con_2b with FcγRIIb is 11.3 % of control He Ab (=100).
